B1: library; numbered along this chain (parent)
chain: MATDAALRRLLRLHRTEIAVAVDSAFPLLHALADHDVVPEDKFQETLHLKEKEGCPQAFHALLSWLLTQDSTAILDFWRVLFKDYNLERYGRLQPILDSFPKDVDLSQPRKGRKPPAVPKALVPPPRLPTKRKASEEARAAAPAALTPRGTASPGSQLKAKPPKKPESSAEQQRLPLGNGIQTMSASVQRAVAMSSGDVPGARGAVEGILIQQVFESGGSKKCIQVGGEFYTPSKFEDSGSGKNKARSSSGPKPLVRAKGAQGAAPGGGEARLGQQGSVPAPLALPSDPQLHQKNEDECAVCRDGGELICCDGCPRAFHLACLSPPLREIPSGTWRCSSCLQATVQEVQPRAEEPRPQEPPVETPLPPGLRSAGEEVRGPPGEPLAGMDTTLVYKHLPAPPSAAPLPGLDSSALHPLLCVGPEGQQNLAPGARCGVCGDGTDVLRCTHCAAAFHWRCHFPAGTSRPGTGLRCRSCSGDVTPAPVEGVLAPSPARLAPGPAKDDTASHEPALHRDDLESLLSEHTFDGILQWAIQSMARPAAPFPS

Variants of: B1
Test: AIRE transcriptional activation functional score (insulin promoter-GFP; nonsense median 0, synonymous median 1) (normalised score); higher = higher AIRE activity (more reporter activation)
Conditions: with insulin promoter-GFP reporter in HEK293
How it was run: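 Flp-In T-REx HEK293 landing-pad cells carrying an insulin core promoter-GFP reporter received codon-optimized AIRE NNN-codon libraries (three regions) through Bxb1 recombinase. Sorting of mCherry+, BFP− integrants took place at day 7, followed by 7 days of expansion and tile-sequencing of top 10% GFP and unselected integrant populations. A functional score was derived from select versus non-select variant enrichment with wild type subtracted. Values from variants reaching 10 counts per million in non-select were set to nonsense median 0 and synonymous median 1 and averaged over biological replicates.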

AIRE transcriptional activation functional score of substitutions, site by site:
R471: K 0.921, S 0.674, T 0.747, Y 1.13, W 1.12, M 1.36, I 1.05, P 0.89, L 0.799, V 0.217, Q 0.5
S476: Q 0.151, W 1.09, H 0.529, D 0.455, I 1.23, C 0.608, E 0.948, K 0.603, T 1.2, P 1.02, L 0.829, G 0.844, F 1.21, M 0.943, Y 1.19, A 0.905, V 0.878, R 0.828
V487: T 1.5, S 0.901, E -0.349, G 0.931, Q 0.492, L 1.03, K 0.821, I 1.06, W 0.552, P 1.04, H 0.858, M 0.568, Y 1.13, A 1.02, N 0.296, C 0.67, F 0.765, R 0.785
P490: A 0.812
C475: N 0.255, F 0.14, G 0.304, K -0.353, W -0.0091, I 0.147, Y 0.0941, M -0.469, Q 0.568, H 0.16, A 0.119, S 0.0047, V 0.0724, E -0.103, P -0.156, T 0.102, D -0.0916, R -0.148, L 0.0763
G486: L 1.03, K 0.91, C 0.625, V 1.45, W 1.49, P 1, F 1.46, N 0.995, Q 0.85, T 0.154, A 0.707, E 0.566, Y 0.737, R 0.926, H 1.27, I 1.37, D 0.692, S 1.16
A482: Q 0.773, P 1.92, F -0.132, S 1.34, N 1.2, D 1.42, L 1.44, E 1.28, I 1.32, R 0.557, G 1.31, Y 1.42, V 1.23, K 1.11, T 0.312
V484: S 0.906, W 1.18, I 1.45, Q 1.72, Y 0.975, R 0.893, T 1.04, D 0.164, L 0.509, F 0.8, C 0.29, A 0.726, G 1.18, E 0.615
S474: M 0.192, T 0.317, P 1.17, L 0.185, E 1.16, R 0.817, K 0.466, H 0.593, V 0.167, N 0.296, I 0.0981, Y 0.736, D 1.33, A 0.936, F 1.12, Q 1.02, G 0.801, C 0.824
C472: N 0.0317, G 0.0511, H -0.28, W -0.112, E 0.216, V 0.0438, D -0.251, Q -0.424, P -0.298, I 0.154, T -0.165, L -0.0415, K 0.158, F 0.226, M -0.0949, R 0.0742, A -0.164, Y 0.117, S -0.0588
D478: C 0.947, M 0.485, Q 0.891, E 1.09, R 0.412, P 0.801, G 0.841, W 0.544, H 0.829, F 0.799, A 0.808, V 0.89, L 0.949, K 0.926, I 1.06, Y 0.902, S 0.816, N 0.709, T 0.678
R473: P 0.607, T 1.06, Q 0.968, D 0.836, A 0.794, M 0.947, V 0.334, I 0.852, C 0.937, N 0.99, K 0.66, W 0.97, L 1.29, G 0.848, H -0.49, E 1.16, Y 1.64, F 0.997, S 0.755
P481: T 0.704, A 0.586, G 0.747, M 1.29, I 0.238, Q 0.501, E 0.44, L 0.8, N 0.00715, C 0.688, W 1.39, V 1.38, K 1.02, D 1.21, R 0.956, F 1.16, Y 1.37, H 1.14, S 0.91
L488: V 1.09, E 0.182, S 0.854, P 1.04, D 0.449, C 0.742, Q 0.827, A 1.27, R 0.722, G 1.03, K 1.07, Y 1.31, W 1.32, I 0.826, N 0.961, M 0.976, F 1.13, T 1.18, H 0.298
G477: A 0.739, Q 0.0223, W 0.745, K 1.11, N 1.12, H 1.41, I 1.01, V 1.13, P 1.46, D 0.678, T -0.261, M 1.01, R 0.787, Y 0.642, C 0.926, L 0.273, F 1.36, S 0.661, E 0.302
V479: N 1.08, C 1.15, T 0.956, I 0.977, L 0.811, H 1.16, G 0.838, F 0.98, K 0.833, A 0.734, R 0.978, E 1.39, W 1.09, D 0.363, S 0.925, Y 0.896, P 0.967, M 1.1, Q 1.24
P483: V 1.03, C 1.44, F 1.33, T 1.46, A 0.722, S 0.811, M 1.36, G 1.89, N 0.937, H 1.13, L 0.603, K 0.675, Q 0.926, I 1.6, R 1.03
T480: R 0.837, D 0.65, A 0.564, L 1, W 1.13, N 0.784, I 0.515, C 1.12, S 0.786, V 1.45, P 1.05, G 1.11, Y 0.806, H 1.18, Q 0.203, F 1.32, K 0.954
E485: C 1.24, F 1.1, T 1.02, Y 0.948, G 1.05, K 0.777, V 0.951, P 1.25, M -0.286, Q 0.397, I 1.1, A 0.466, N 0.645, W 1.08, D 0.981, H 0.537, L 1.11, S 0.955, R 0.652
A489: M 1.23, K 0.705, I 0.859, C 1.19, Y 1.22, S 0.687, R 0.51, D 1.17, E 0.655, F 1.16, P 1.01, T 1.44, L 1.06, G 0.932, W 0.893, H 1.18, V 0.959, Q 0.0401

— the supplement of paper PMC12667976
